In publication PMC6302314 one finds maximum observed concentration of type A oligomers (37 °C) and maximum observed concentration of type B oligomers (37 °C) data, which are given here for one substance.

Assay [1] has as its target tau K18 ΔK280 (I260C/C291A/C322A), labelled with Alexa488 or Alexa647. In words: FRET or BRET; single-molecule FRET between copies; 5 μM tau–Alexa488 + 5 μM tau–Alexa647, aggregation started with heparin (1:4 heparin/tau), 22-42 °C; aliquots diluted 12.500 times into low ionic strength buffer (no NaCl); confocal detection in a microfluidic channel, 6 min per time point. (BRET reads energy transfer from a luciferase to a nearby fluorophore.)

Assay [2] has the same target. Briefly: FRET or BRET; single-molecule FRET between copies; 5 μM tau–Alexa488 + 5 μM tau–Alexa647, aggregation started with heparin (1:4 heparin/tau), 22-42 °C; aliquots diluted 12.500 times into high ionic strength buffer (0.5 M NaCl); confocal detection in a microfluidic channel, 6 min per time point.

With “tau K18 ΔK280 (I260C/C291A/C322A), labelled with Alexa488 or Alexa647 (domain or fragment)”, the maximum observed concentration of type A oligomers (37 °C) in assay [1] was found to be 104 nM. The maximum observed concentration of type B oligomers (37 °C) in assay [2] worked out at 37 nM.
